# ± gives the standard error. For part of these data: Fewer inactive variants are shown than the library holds.
# B1: glmS ribozyme (parent)
# chain: AUAAAAGCGCCAGAACUACAGAAAUGUAGUUGACGAGGAGGAGGUUUAUCGAAUUUUCGGCGGAUGCCUCCAAA
# Tests used:
# Conditions in all cases: with glucosamine-6-phosphate
# [1] = variants of: B1; assay: kcat; higher = faster cleavage; RNA array
# Outline: (§1)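 Barcoded ribozyme variants, transcribed in situ by E. coli RNA polymerase on sequenced MiSeq chips, were followed via a hybridised Cy3 probe at 37 °C. Glucosamine-6-phosphate ranged from 40 μM to 10 mM in HEPES/KCl/Mg(OAc)2 buffer. kobs came from decay fits to per-tile medians, and kcat and KM from weighted Michaelis–Menten fits.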
# [2] = variants of: B1; assay: KM; higher = weaker cofactor use; RNA array
# Outline: as §1
# [3] = variants of: B1; assay: self-cleavage kobs at 160 uM GlcN6P; higher = faster cleavage; RNA array
# Outline: as §1
# [4] = variants of: B1; assay: self-cleavage kobs at 640 uM GlcN6P; higher = faster cleavage; RNA array
# Outline: as §1
# [5] = variants of: B1; assay: self-cleavage kobs at 2500 uM GlcN6P; higher = faster cleavage; RNA array
# Outline: as §1
# [6] = variants of: B1; assay: self-cleavage kobs at 10000 uM GlcN6P; higher = faster cleavage; RNA array
# Outline: as §1
# [7] = variants of: B1; assay: self-cleavage kobs at 40 uM GlcN6P; higher = faster cleavage; RNA array
# Outline: as §1
Variant,kcat [1] [s⁻¹],KM [2] [µM],self-cleavage kobs at 160 uM GlcN6P [3] [s⁻¹],self-cleavage kobs at 640 uM GlcN6P [4] [s⁻¹],self-cleavage kobs at 2500 uM GlcN6P [5] [s⁻¹],self-cleavage kobs at 10000 uM GlcN6P [6] [s⁻¹],self-cleavage kobs at 40 uM GlcN6P [7] [s⁻¹]
C58G C70U,5.2e-05 ± 3.9e-06,230 ± 110,2.43e-05 ± 1.1e-05,3.07e-05 ± 1.1e-05,5.21e-05 ± 7e-06,4.8e-05 ± 7.6e-06,
A52U G66U,4.61e-05 ± 3.4e-06,,,,3.74e-05 ± 1.8e-05,4.26e-05 ± 1.2e-05,< 1e-05
C16G C61A,1.02e-05 ± 1.1e-06,,,,,,
A15C C16A C70U C71U,2.86e-05 ± 3.8e-06,,,,2.89e-05 ± 1.3e-05,,
U46G A53C,0.00122 ± 6.4e-05,2790 ± 250,5.96e-05 ± 1.8e-05,0.000231 ± 4.3e-05,0.000609 ± 9.9e-05,0.000938 ± 0.00012,
C10G C68G,5.21e-05 ± 1.5e-05,,,4.42e-05 ± 1.8e-05,4.78e-05 ± 1.7e-05,,
G29U G38U U69G,7.45e-05 ± 3.4e-05,,9.11e-05 ± 1.8e-05,0.00014 ± 6.1e-05,0.000102 ± 4.6e-05,,
G32U C58G,0.00149 ± 0.00016,8790 ± 1300,3.01e-05 ± 9.4e-06,0.000102 ± 1.7e-05,0.000294 ± 7.3e-05,0.000802 ± 9.7e-05,
C34A C71G,1.15e-05 ± 3.9e-06,,< 1e-05,,,,
G37A,0.00564 ± 0.001,3540 ± 830,0.000198 ± 7.5e-06,0.000777 ± 1.7e-05,0.00255 ± 7.6e-05,0.00419 ± 8.2e-05,7.38e-05 ± 1.4e-06
U31G A52U,8.72e-05 ± 5.4e-06,1520 ± 320,,,5.7e-05 ± 9.5e-06,7.41e-05 ± 1.1e-05,< 1e-05
A53U U54G,0.0452 ± 0.016,3780 ± 1600,,0.00468 ± 0.001,0.0161 ± 0.0061,0.0354 ± 0.0056,0.000521 ± 4.8e-05
G32C C70U,0.000154 ± 1.4e-05,2850 ± 800,,3.89e-05 ± 1.1e-05,6.52e-05 ± 1e-05,0.000121 ± 7.5e-06,
U69G C71U,4.96e-05 ± 1.4e-05,,7.88e-05 ± 2.1e-05,9.65e-05 ± 2.5e-05,6.25e-05 ± 1.2e-05,3.11e-05 ± 9.4e-06,
G51U C58G,1.13e-05 ± 4.5e-06,,,< 1e-05,,< 1e-05,< 1e-05
U45A U47C,0.00985 ± 0.0035,2660 ± 1300,,0.00165 ± 0.00043,0.0091 ± 0.0044,0.00776 ± 0.0024,0.00017 ± 4.6e-05
